Non-standard residues stand in square brackets, D forms with d. No end group written: not given here. Chg = N[C@H](C(=O)O)C1CCCCC1
T1: Nat1 (LTIITLE) (also: TFA salt)
T1 peptide: LTIITLE


Molecular target: T1, Nat1 (LTIITLE)
Assay: cell-based or functional assay

| Binder | IC50, Thiofiavin T aggregation assay |
| --- | --- |
| TRIRFYR | 64 nM |
| TYVYRRR | 3660 nM |
| [dF][dA][dR][dA][dH][dR][dR] [farahrr] | 906 nM |
| [dQ][dL][dK][dW][dL][dH] [qlkwlh] | 716 nM |
| [dR][dQ][dW][dY][dR][dW][dQ] [rqwyrwq] | 2720 nM |
| [dI][dL][dK][dW][dL][dW] [ilkwlw] | 1340 nM |
| [dQ][dV][dR][dY][dH][dK][dN] [qvryhkn] | 5700 nM |
| WTIRTWH | 784 nM |
| LTRITLE | 1680 nM |
| [dS][dH][dW][dR][dH][dH][dR] [shwrhhr] | 2270 nM |
| [Chg]R[Chg]RRYR [Chg-Arg-Chg-Arg-Arg-Tyr-Arg] | 67 nM |
| TRIYRVK | 3740 nM |
| YTYMLWK | 824 nM |
| AYYYRHR | 2120 nM |
| YYIRTYH | 1600 nM |
| IHIEIK | 723 nM |

Results, then the binder that gave them:

| IC50, Thiofiavin T aggregation assay | Binder |
| --- | --- |
| 945 nM | LSIRQH |
| 702 nM | [dR][dL][dK][dW][dR][dW] [rlkwrw] |
| 1060 nM | [dK][dL][dK][dW][dL][dW] [klkwlw] |
| 3140 nM | [dQ][dW][dR][dW][dR][dH][dR] [qwrwrhr] |
| 1730 nM | LLAKYHR |
| 1250 nM | IRARRYR |
| 1340 nM | WTRITLE |
| 1900 nM | IWIRRWR |
| 5170 nM | TYIYRQR |
| 703 nM | IFVYHH |
| 720 nM | WTIKLTH |
